Among the data in patent publication US20220041711A1 are IC50 (read off the curve) values, retold here.

B1: anti-LAIR-1 antibody ch57D12 (antibody, V domains shown)
VH: QVQLQQSGAELARPGASVNLSCRASGYSFTSFGISWVKQRTGQGLEWIGEIYPRSDNTFYNEKFKGKATLTADKSSSTAYMELRSLTSEDSAVYFCARHFGSSSFDYWGQGTTLTVSS
VL: ENVLTQSPPIMAASLGQKVTMTCSASSSVSSIYFHWYQQKSGTSPKPLIHRASNLASGVPARFSGSGSGTSYSLTISSVEAEDDATYYCQQWSGYPLTFGGGTKLEIK
B2: humanized anti-LAIR-1 antibody Hz47H1.v4 (antibody, human IgG1, kappa, N297G, V domains shown)
VH: EVQLVESGGGLVQPGGSLRLSCAASGFTFNINAMNWVRQAPGKGLEWVARIRTKNYNYATFYADSVKDRFTISRDDSKNSLYLQMNSLKTEDTAVYYCVRDRAGFFAYWGQGTTVTVSS
VL: DIQMTQSPSSLSASVGDRVTITCLASQTIGTWLGWYQQKPGKAPKLLIYAATSLAEGVPSRFSGSGSGTDFTLTISSLQPEDFATYYCQQLYSTPLTFGGGTKVEIKR
B3: humanized anti-LAIR-1 antibody Hz62G10.v1 (antibody, human IgG1, kappa, N297G, V domains shown)
VH: EVQLVESGGGLVKPGGSLRLSCAASGFTFNINAMNWVRQAPGKGLEWVARIRTKNNNFATYYADSVKDRFTISRDDSKNTLYLQMNSLKTEDTAVYYCVRGPYFDYWGQGTLVTVSS
VL: B2 VL with G34A, E56D, L96Y
B4: anti-LAIR-1 antibody ch47H1 (antibody, V domains shown)
VH: EVQLVETGGGLVQPKGSLKLSCAASGFTFNINAMNWVRQAPGKGLEWVARIRTKNNNYATFYADSVKDRFTISRDDSQSMLYLQMNNLKTDDTAMYYCVRDRAGFFAYWGQGTPVTVSA
VL: DIQMTQSPASQSASLGESVTITCLASQTIGTWLGWYRQKPGKSPQLLIYAATSLADGVPSRFSGSGSGTKFSFKISSLQAEDFVIYYCQQLYSTPLTFGSGTKLEIK
B5: anti-LAIR-1 antibody ch62G10 (antibody, V domains shown)
VH: EVQLVETGGGLVQPKGSLKLSCATSGFTFNINAMNWVRQAPGKGLEWVARIRTKNNNFATYYADSVKDRFTISRDDSQSMLYLQMNNLKTEDTAMYYCVRGPYFDYWGQGTTLTVSS
VL: B4 VL with G34A, R37Q, S77N, I85T, L96Y, S100G

Substitutions are numbered along the chain they refer to.

The target of the experiment is cyno LAIR-1-Fc (cynomolgus monkey). Put plainly: ELISA blocking: plate coated with 5 µg/mL human collagen type 1, antibody titrated, 1 µg/mL biotinylated cyno LAIR-1-Fc, streptavidin-HRP, OD650.
Chain of cyno LAIR-1-Fc (cynomolgus monkey) (chain, as listed by the source limits assumed, form in doubt): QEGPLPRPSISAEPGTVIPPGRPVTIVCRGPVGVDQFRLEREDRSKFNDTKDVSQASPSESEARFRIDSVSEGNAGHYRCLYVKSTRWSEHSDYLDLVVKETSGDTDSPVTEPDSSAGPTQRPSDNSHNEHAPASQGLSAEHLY
Take B1: the IC50 (read off the curve) was 6 nM. The same measure for B2: 3 nM; for B3: 3 nM; for B4: 3 nM.

With B5, the IC50 (read off the curve) was found to be 3 nM.
